Data published in the domain aggregation screens of Martell et al. (2025).

Assay: soluble fraction after stress (log2 fold change); higher = more stays soluble; pooled small domains, quantitative proteomics
Details: stress: 75 degC
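Also: 20 min heating vs room temperature control held 20 min.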

Sequence | soluble fraction (log2)
HMVPADVQHLRDIVDTMTEKQQLVYKLHVLEGYTFTEIAKLMGTSIPNVKKHYDKAILFIKNNF | -1.79
HMVPEEEATKISVQNVGASDYNFTVKGVQANDPTLTLVRGKTYEFDVTSLGHPFWIKTQKVTGSSSQY | 0.354
HMVPLSPRFFDIFRKRKDLTRQNVDVYFRDHPTEITAFERYIKGLVSQSYIPAERADALLLVASQYKAK | -1.58
HMVPSTAVIFTELVSMRSEPATKSPVTHQLTKGTAITINEEKDGWYQVTDQTGNSGWIVKWAVKPTYFTNP | -0.967
HMVPTYEAYVGKEGLVVGTLRPAGTAEFDGERLDVVSEGEYLEAGTRVQIVRTEGRRIVVRKIN | -0.275
HMVPVVGTTIPHEFIGKFGSARVMLKPAVEGSGVIAGGSARAVLELAGYKDIKTKVLGTNNPRNVVYATMN | 0.238
HMVQDDDPNSVAKFIDQVIESNPEQVEQYRSGKEKVFNFFLGQTMRLSKGKANPDLVSELLKEKLS | 0.0209
HMVQIQDIAFSEFLNELEKGNILDVNIKGDLINGNMLDGKKFKTYAPYDPSLVEKLSKQNVTINVEPVN | 0.109
HMVQMKIRAYELEPNDFFIKQNMTYRVMRIQNGMIYAKHLLNSTPITFGAKSMEFVLWTGKYS | -2.21
HMVQQTEEDVIRDMYVEGKIFTIGEEVTDTYTGVTGKIIRRGTNYVTFMSEDGETYKKWLYEIELA | -0.61
HMVRDGDTFVVPKMDRFARNVEDTLHLVRELTERGVIFQMGHTVYDPHDPWSKLFLTFLAAIAEA | 0.0785
HMVREVGYNAFLAMLDSGAVKEVARDESEGQITFLATDEKGKERVYKTGIWPDDTLTERLNTAGVEFA | 0.351
HMVREVSYDQFLHFVEAKQVGMVYQDGESLMFTLKEDVEKEWGVTAYKTGLWPDANLTDRLLDAGVVFS | -2.32
HMVRGNLAEELLKLREEEGISFQEAGARSGIARSTISQVVNQGLRLKPNQEESLWRVIEEVRGVKER | 0.0321
HMVRSEDLIGLQGRITLATDVETRGFVELSVKGSLLRRPALSLKGPLAKNTAVVVTASNDHTLEVEAL | -0.985
HMVRSKLEIVPVPEDAVVKIAGLKRLTYQAYQNEDVPYMVYKNGYEAQSGTVFMDTDKTLTVTLEESP | -0.0399
HMVSAMLLHKKEILNLLAEEPEALHFASLLRAFGGRHIKNELKQIVDDLVRSGEILRLRGNRYTLPGADN | -1.5
HMVSATKAFVNGGNIVVSSPKATRVAVYNVAGQKVAEQAFAGKATIKASDFAKGIYVLKFNDNTVLKLT | -0.955
HMVSDAELTSQATTAITAYPGTSVEVKEGQAHLSGTFATEADKQAAIDALKKIQDVKDVHDMATV | 0.152
HMVSDSAELSAFVADVIKENAQAVADYKGGKTNVFGWLMGQIIKKSGGKATPAAAAALLKAELEK | -0.0308
HMVSKQVTVNGIQYYQYTVQKSEGFYAISTKFGVTQDDIILANPSTKEGLRVGQEILIPIKT | -2.62
HMVSLLDWAYKQVRRMLFSGDLPQGQKIVVAQLANQLSISPTPVKEALNRLAVEGLLEAVPRRGFQVR | -0.548
HMVSQELIMLGNRIREYRKERGFSQEILAEKSGVSTNTISRIEGGQMAMSVGILQRIVKALGVDANVMLG | -2.32
HMVSQKPKERELWFREQLELAGLRLDPHAISAINETLGNDTGRFPGIIDTLLSTYGAGKKLSYDDVVMFL | -0.638
HMVSRAFEEETVKRAESGNQEAALFALELAIREIEHSYEKSKIIDYFVSKVRLFLDNGVSLERALGIH | 0.196
HMVSRKIENPYWANKEKQHIIAEFFYPDTNKRVTASIMNDGSNRDYEEILRGYSIEQIDANTNRRLEER | 0.566

Sequence | soluble fraction (log2)
HMVSSEGLASGIERMLVEFGLETDKGRRFAMWSLLYMLGSAPDLDVAFKDPRDREAARTFMDLLDQANA | -1.57
HMVSSVAAISQMIDEKDRYTSEHSHRVAEYARLIGAHMGFAGEELDSLYRSALLHDIGKIAVPDAILNK | -0.627
HMVSTDPVHLFNLGTANRRAGRASEAITSYRKFMEAAPQHPQVPEARAYIHDMEVLLQERQKSEQAASQLS | 0.143
HMVSTSVTVTGDLNVRADSRADSDLVGALIPGQTVTRLAVLDNGWSKIRFDDGAGTVVEGYVLSEYLQADG | 0.335
HMVSVEINTVERDETFRKMFTSGWKPENRIQALAVEQAKKNGLGRMSEVAGLASFRGIWKQATEQVALEA | -0.213
HMVSVLDHIVGIGAKRRQSLWNHFGTIDKIKAASIDELLKAPGMNRPSAEAVYYFFEAQRQLRGK | -1.22
HMVTEKNALTIEIEDLTKRFGNQRESLLPILQEVQLKHGHISDFAQQEIARLLDIHPVEVYGVVTFFSFLS | -3
HMVTGSIYERKGIYYAIVSYYVDGRRKQKSVSTGLSVKGNKRRALEFLENLKRTYETKESMENMD | -3.79
HMVTIEEMMDRLLTRVQRAVNMSFSEFSGEAKEKVEVIVSFLALLELVKQGAVDVLQHENFSDIRIENT | -0.661
HMVTKQKKLVLTIIERSHGHLSAEEIFFRAREEMPNIALGTVYRNLNSLTEEGIVRRITLPGTSDRFDT | -2.91
HMVTKTTYAYERLKREIMDGTLGQGEKLVVNAISQRYQVSPMPIREALLKLEQEGLVQSAPHRGAWVHK | -0.776
HMVTNELFGTRLRAFRKEKGLTIEQLAERVGLSPNYLGDIERGKKLPSMATFIRLVNELDISADEL | -1.52
HMVTQVDYGTFLTRIDEGKVKSVEIQDNQIAFTAIDEAGKENIYVTGKVNDPELVDRLLAADIEDFSQVIP | 0.0911
HMVTTTEAAKMLLVNAGHDVIKDGLTGASWASNTMKLADADGLLASVATKPNDALPRQYAAQMIYN | 0.103
HMVVANTAIKSELQNIVANENKQAPLSDQKIVDQLKQAGFDISRRTVVKYRDALGIPTSRNRKR | -0.28
HMVVEGMQFDRGYLSQYMVTDNEKMVADLENPYILITDKKISNIQEILPLLESILQSSRPLLIIADD | -0.0369
HMVVGYRYVTNVANAVNFRQKPSASSTIITTIPYGTRIGYVEDANSEYARVKYDNMYGYVAKFYLSNYSPP | -3.68
HMVVLNQEQIKFIDHYLQVSKVRYVDVRSELTDHIATAVELKMQDEALDFYEAFKAFIAVNKSQLLQRN | -1.06
HMVVNERIKKLRRSLDLTQQEFADRIGVKRNTIANYEIGRNEPIDSVLELIVREFGVSKQWLLDGTGEMF | -1.43
HMVVPRSFKYEVLAHGGWAGNAQRYQTKEEALHAGLALSRRWTAVEDYRAVPSDDLPNQPAL | -0.231
HMVVPSNPDELKGSFSLAEVASGYGLEVAAILEKAGWPADTDPNVKMRDAANAIGRDSTDIRNAVKALLKS | 0.156
HMVVVPPPATPKPGDVTGDNKINGYDLSILLSNWKRPGATLAQGDLNKDGVVNGLDLSIMLLNWG | 0.274
HMVVYDAELLLNINPGMSYEEVKEMLGDPGMIIAGNDAENSVYRWSTGGISFMGRFENGALIRKSIISP | -0.862
HMVWNVEQIKRAVDQLPDGYRVVFTLYLFEGYDHREIADILGISEGGSKSQFNRAKSKLKEILTAMS | -2.19
HMVWTAGEVVERIRERVGHPATIRELMQVLTIPPEDRHRFRRRIMQLVEAGELIRIRGNRYGLAD | -2.59
HMVYNGYYAKSFNGYVVILNGDEKTVYEYTQIPIHLLPEDIRSSVMSGYYLENETDLYNFLENYS | -3.24

Sequence | soluble fraction (log2)
HMWAVDFVLLDKDDQRIGNAVAYRDDRTKGMDEEVYRTVPEEELYASTGIQKQIFNSIYQLMAWKK | -0.0106
HMWDRFGELDSAEEINRIAAAELREGDIDALKVLAEENGLDKDDVEDYIDRLIDELTTPELAAIGKLDV | 0.275
HMWKQISSEAELLPAVRSVIQANPGEAEKLRNGEMAPLEFLTGLVMKKTNGMAVPQIVKTLIKKELKI | 0.0414
HMWKSEAGKKIIESLAQKYNKSNAQIILRWHIQMGYIVIPGARSENHIKENINIFDFKLTNEEINNILKLN | -0.242
HMWMTAQDFRNSSLPWSATTSYNEGQSVRVVDGSNTYYYIAIVKTQPGQSPTTHPTSWREVDA | -1.16
HMWNLPDPVVRPEGNVTVYENFKNTVEVLNREADLVLKFLQNEFGTSANIDDTGRARLTGSFSTDRVSSVI | -0.328
HMWSNTAVIDRIRQLHEEGQPISSQSVQVNHKSLYMAAIKRFRGWKRAVEAAGIDYRQIRLR | -2.29
HMWWTPIILRDALFGVQRFEDFQKNLDVSRATLSSRLTRLVDEGLMEKVEYQQHPVRHEYVLTEKGR | -0.234
HMYAGTWTTESGQWKYRQDDGTYAKGWLQDTDGRWYYFDANGRMLSNTATPDGYQVGEDGAWVNH | -0.338
HMYAMTAEDWIVSGNRKYINDDLQGAIADYTKAIEIDPNYAAIYLVRGKAKYELKNYQGAIEDYTKAIE | -1.29
HMYAPKIETIQVPQDKIREVIGTGGKVIREIVETTGAKIDIGDTGLIKVASSDGEAIRAALDWINSIVAE | 0.278
HMYATQLLQLEEMGFFDRAENIRALRATNGNVNAAVERL | -0.202
HMYDASELNKALEEAKKLDLNNYTEESSEALKNAISKAEEALLSKDKETINSALEELNKAMDSL | 0.512
HMYDEAAIRKAVMTFVTDNRDERLDLAKISAVLTSKFGNINFDELGYKRFSSFIDSFPELRRNNTFVSLR | -0.883
HMYDFGVILQKLRKEKGFTQEQLARLIHKESSIISRYEKGLQNPTFETVKEFAAIFNVSMDYLAG | -1.49
HMYEGNEFSSTGMFREDILAITAVHPMREDAVTELLARSNESEETLEMMIDEELLRRVAYGNHNYYMRRFR | -0.611
HMYEHLKALRESLGMTQAEFGESVGVAKSTYNNYEIGARDPKSDFWIAVAQRYGVTIDYLMGFSDDPKKT | -1.76
HMYELSDTEWKIIEQVGLGASNKEIAASLHFSEGTIRNYLSVILDKLSLRDRTQLAILYVKMN | -1.11
HMYEPPTEDEKRVLSLLATRESIVRSDVDRLLGVSQSTANRILKQMIEKYLISQEGTGKNTKYIK | -0.263
HMYESAMSDLHARIMSSDDPHGEIYKMLTQSGPEAKYIQDMYNETSIDRGLHPDDDFEDIIDAMVAELDD | -0.68
HMYEVVPNMKGLSYEQAATALRTAGLEPELSDSIYDDKTRPGTVLEQSPRANTKVKPGRTVYLTVNAF | 0.0171
HMYFFNTFTQRLFDNPELTQEEAIRQMYPGISGVQTAEKLQENFMADVYIQAAIRQEIVVQLIR | -0.485
HMYGSLGEYELAAVQWIYGKGKITTRELSSLIGKGLTLSSKTLRGLAAKGILEWHGNSKNDPSQFYSLP | -2.42
HMYHADLIGLEARSTAGDKLGEVNAVYNFGAGDLIEIKMTDGNLEMLPFTRQYVPTVSIKDGFIIVQM | -1.32
HMYHIYPVADNDTPKLSADRLEYSLSNALLTNKLLNIDEIKKIYNDVILDKDEDGTLELSFKS | 0.127
